Experimental data: the supplement of paper PMC10567573
± gives the standard deviation.

Experiment: protein stability index of a GFP-peptide fusion (GPS, HEK-293T) (PSI 1-6); higher = more stable
[1] = treatment: DMSO, c terminus: a fixed tail appended
[2] = treatment: MLN4924 1 uM, 8 h, c terminus: a fixed tail appended
[3] = treatment: DMSO, c terminus: native
[4] = treatment: MLN4924 1 uM, 8 h, c terminus: native
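Also: 24-mer peptide tiles fused after GFP, lentivirally expressed, FACS-sorted into six equal bins by GFP/DsRed ratio, decoded by Illumina sequencing, PSI is the read-weighted mean bin number.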

Sequence | protein stability index [1] | protein stability index [2] | protein stability index [3] | protein stability index [4]
EGKNMSFVNDLTVTQDGRKIYFTD [APMAP] | 3.98 ± 0.38 | 3.91 ± 0.58 |  | 
EGLELTEQTFSPAKSLSFRKGELV [ADD1] | 4 ± 0.39 | 4.2 ± 0.34 |  | 
EGLGQSLGNFKDDLLNVCMRHVEK [TRIM29] | 3.62 ± 0.27 | 3.78 ± 0.27 |  | 
EGLLRFSSWPFSIQDVVQPLTLQV [AUP1] | 2.85 ± 0.76 | 2.98 ± 1 |  | 
EGYCQAQAPIAAVLLMHMPAEQAF [TBC1D10A] | 2.33 ± 0.49 | 2.03 ± 0.27 |  | 
EIALAPYQHLEEDMKSLKQVLEMK [MTUS2] | 3.62 ± 0.17 | 3.65 ± 0.49 |  | 
EIKDVLVWTNDQVVHWVQSIGLRD [PPFIA4] |  | 2.25 ± 0.37 |  | 
EKMMQEAEKLKAQGEYSRKLEERF [CCDC89] | 3.48 ± 0.24 | 3.56 ± 0.52 |  | 
EKNQVQLGKLEATIKSLSAELLKA [SASS6] | 2.6 ± 0.45 | 2.54 ± 0.42 |  | 
EKSGSAEPFVLPASSVESTLPVLE [FBXO34] | 5.08 ± 0.39 | 5.01 ± 0.34 |  | 
ELALALKGNTTLQQLDLRWNNVGL [LRRC45] | 2.19 ± 0.42 | 2.07 ± 0.35 |  | 
ELEKNFSNFPRQYFALRKILKQLI [TRIM39] | 2.58 ± 0.92 | 2.85 ± 1.3 |  | 
ELEQQIWKERDEYITKVSEEVTRL [TRIM15] | 3.94 ± 0.21 | 3.95 ± 0.27 |  | 
ELERFVNLHSLALDFCDFTAEMAR [FBXO33] | 2.23 ± 0.11 | 2.61 ± 0.29 |  | 
ELESIRQDRDALHMEGLIVRERIL [FEM1B] | 3.44 ± 0.27 | 3.52 ± 0.36 |  | 
ELRRLFLVQDLVDSLKFAVLMWLL [RTN1] | 2.18 ± 0.56 | 2.2 ± 0.29 |  | 
ELSPLALGRFSLTPAEGDTEEDDG [CDC25B] | 5.44 ± 0.18 | 5.44 ± 0.43 |  | 
ELVENIKSVLKSDEEHMEEAITSA [FAM189A2] | 3.64 ± 0.16 | 3.79 ± 0.41 |  | 
ELVLVSAGFDAARGDPLGGCQVSP [HDAC6] | 2.89 ± 0.27 | 3.14 ± 0.35 |  | 
EMHFLENAKKLSMYGVDLHHAKDS [EPB41L3] | 3.03 ± 0.67 | 2.8 ± 0.25 |  | 
EMHTALMEACMDGHVEVARLLLDS [ANKRD17] | 2.38 ± 0.22 | 2.55 ± 0.28 |  | 
EMMRFIYTGRAPNLDKMADNLLAA [SPOPL] | 2.42 ± 0.29 | 2.01 ± 0.19 |  | 
ENTAETITRVLYEVFIEWGISAKV [ZBED1] | 2.82 ± 0.088 | 2.78 ± 0.72 |  | 

Sequence | protein stability index [1] | protein stability index [2] | protein stability index [3] | protein stability index [4]
EQGFQEGVPNASVIMQVPERIVVA [MFF] | 3.76 ± 0.35 | 3.83 ± 0.042 |  | 
ERFIQYLASRNTLFNLSNFLDKSG [SNAP91] | 2.4 ± 0.26 | 2.53 ± 0.61 |  | 
ERHKLKRQDADAWTLYKILDSCKQ [SMG5] | 2.75 ± 0.21 | 2.9 ± 0.36 |  | 
ERHSDLPPLNPTSWWADLRALARN [SPNS1] | 3.34 ± 0.5 | 3.34 ± 0.38 |  | 
ERLAHSRAAAAAAVAAATAAVEGS [KCNA4] | 4.38 ± 0.2 | 4.25 ± 0.29 |  | 
ERSARYQYFVVDPMAEYNMPQYIL [PTPRD] | 2.01 ± 0.28 | 2.74 ± 0.99 |  | 
ERSSFYSCAGGRLFQQSCPTGLVF [CHIT1] | 1.99 ± 0.15 | 2.13 ± 0.18 |  | 
ESASSQSGCLRISIQKLSNESRYM [NECAB1] | 2.76 ± 0.2 | 2.78 ± 0.31 |  | 
ESEPPAPNIRNMAPNSLSAPTMLH [TRAF3IP2] | 4.54 ± 0.24 | 4.37 ± 0.34 |  | 
ESGLRSLRLFQKLEENGDLYLAV [WDR41] |  |  | 2.08 ± 0.2 | 2.16 ± 0.36
ESGTKGLFAGFLPRIIKAAPSCAI [SLC25A39] | 2.24 ± 0.12 | 2.47 ± 0.28 |  | 
ESHEVPGTLSMGVPQIFKYGETCF [ZNF24] | 2.74 ± 0.39 | 2.89 ± 0.73 |  | 
ESLREELICLKKNHEEEVNTLRSQ [KRT34] | 4.91 ± 0.23 | 5.04 ± 0.23 |  | 
ESRAPSPLLHKDSASLEVVKKDHV [CBY2] | 5.18 ± 0.3 | 5.27 ± 0.24 |  | 
ESTTVVTTQSAEVGAAETTLTELR [KRT18] | 5.37 ± 0.076 | 5.29 ± 0.22 |  | 
ETDHLSMEEEDPMPRQISRQSSVT [TPRG1] | 5.37 ± 0.21 | 5.28 ± 0.36 |  | 
ETEKEEEEEDREEEDENGLPRRRG [NEUROD6] | 5.815 ± 0.053 | 5.62 ± 0.39 |  | 
ETLKHIKATEPTETVQTWIELLTG [GOLPH3L] | 2.59 ± 0.2 | 2.86 ± 0.22 |  | 
ETQTLTGWSKGFIGMHREMQVNPI [RHOBTB1] | 2.89 ± 0.26 | 3.12 ± 0.23 |  | 
ETRRRMEMAFNTRCKEENTIILQQ [NLN] | 2.66 ± 0.36 | 2.98 ± 0.23 |  | 
ETWNPFKLQYQLRNVRERIAKNLV [GOLPH3L] | 2.37 ± 0.34 | 2.37 ± 0.24 |  | 
EVALDKGCSQFRLAVLDWNQRAMD [SAT2] | 2.94 ± 0.48 | 2.95 ± 0.28 |  | 
EVRLVPVSFEDPEFKSSFSQSFSL [ATE1] | 2.56 ± 0.41 | 2.74 ± 0.39 |  | 

Sequence | protein stability index [1] | protein stability index [2] | protein stability index [3] | protein stability index [4]
FACLSVLFVTVTAVNLSVSTLPSL [KCNG1] | 3.15 ± 0.28 | 3.46 ± 0.23 |  | 
FAIPVGSGLGYIAGSKVKDMAGDW [SPNS1] | 2.35 ± 0.28 | 2.21 ± 0.44 |  | 
FAPFIVYYFIMACDQYSCALTGPV [DHCR7] | 3.01 ± 0.077 | 3.2 ± 0.2 |  | 
FEMLSGFPPFFDDNPFGIYQKILA [PRKX] | 2.47 ± 0.45 | 2.29 ± 0.3 |  | 
FFYDCSNNPISEHFHPTVIGESMY [TENT5C] | 2.16 ± 0.43 | 2.26 ± 0.16 |  | 
FGGMKSSGIGREGAKDSYDFFTEI [ALDH8A1] | 2.22 ± 0.66 | 2.52 ± 0.27 |  | 
FGMAKIDNLLQEMLLGGSPSDAPH [HNF4A] | 2.8 ± 0.25 | 2.76 ± 0.28 |  | 
FGRLVANVLKSYIGLGHIYSGTFA [CLCN6] | 2.94 ± 0.42 | 2.79 ± 0.33 |  | 
FHCLWDDSFPEGPERLHAIKEQLI [HDAC6] | 2.47 ± 0.26 | 2.41 ± 0.33 |  | 
FHEDGPQGPGGDEDDDEEDTDKLL [PSD2] | 5.55 ± 0.32 | 5.59 ± 0.2 |  | 
FIARLQGSILQFNPEVGIFVSIAQ [SMG5] | 2.77 ± 0.59 | 2.64 ± 0.45 |  | 
FISVFSNLLESKADGIEVSYNACG [ZER1] | 2.3 ± 0.49 | 2.17 ± 0.17 |  | 
FIVDILQFLDIGPDVTRVGLLQYG [MATN2] | 3.11 ± 0.51 | 2.94 ± 0.82 |  | 
FLCDLYPLLKLACTNTYVTGLSMI [OR4A15] | 2.82 ± 0.23 | 3.25 ± 0.45 |  | 
FLKAVLRQERVSLYPFQIHSIALS [CDS1] | 2.01 ± 0.23 | 2.42 ± 0.91 |  | 
FMRTSVKISYIGLMTQSSLETHHY [TMEM106C] | 3.07 ± 0.75 | 2.63 ± 0.38 |  | 
FNCIRAAIAPFQSAGSPPELQGLP [NET1] | 2.67 ± 0.2 | 2.72 ± 0.2 |  | 
FNLTPPICEQAEYHMFQREKVEVQ [KCNAB2] | 3.72 ± 0.24 | 3.88 ± 0.17 |  | 
FPVSVTQQSPAAVSMETYHVTLTL [C2CD2L] | 3.29 ± 0.38 | 2.9 ± 0.36 |  | 
FRVAKKRAPKVLGTTLVVGLLAGV [GDAP1] | 2.47 ± 0.86 | 1.82 ± 0.61 |  | 
FSGTPPPPVLSFRLVHTTAIEHFQ [FCHO1] | 2.32 ± 0.24 | 2.28 ± 0.19 |  | 
FSKQIVLRGKSIKRAPGEETEKEE [NEUROD6] | 4.94 ± 0.28 | 5.1 ± 0.34 |  | 
FSSNIHTYHVGKQCFFNGVFLGNK [SPATS1] | 2.56 ± 0.39 | 2.05 ± 0.32 |  | 

Sequence | protein stability index [1] | protein stability index [2] | protein stability index [3] | protein stability index [4]
FVKDPQGRIIAVFKPKNEEPYGHL [PI4K2A] | 2.32 ± 0.26 | 2.9 ± 0.23 |  | 
FYMRTNPFYPEVELNFISVFWPQL [MMP1] | 3.11 ± 0.38 | 2.89 ± 0.25 |  | 
FYTAITKKIFKSHLKSSRNSTSVK [P2RY14] | 2.18 ± 0.33 | 2.32 ± 0.55 |  | 
GAARLALLQGAGLDVERWLKPAMT [FCHSD1] | 2.5 ± 0.53 | 2.45 ± 0.36 |  | 
GAHWMRQLVSFQKLKLTNNHLDPF [TBX5] | 2.18 ± 0.21 | 2.19 ± 0.45 |  | 
GAQFEGEKGRALQIRDWRGGRLEN [ZSWIM9] | 4.24 ± 0.23 | 3.87 ± 0.57 |  | 
GARPLSTRVPRAAIVFTDGRAQDD [MATN2] |  | 4.48 ± 0.68 |  | 
GASDNSIIMWDIGGRKGRTLLLQG [WDFY1] | 2.15 ± 0.36 | 2.19 ± 0.35 |  | 
GATGECQNFLDPGYPLPKLDMNFS [ZNF449] | 3.47 ± 0.2 | 3.67 ± 0.29 |  | 
GCCKRRYLQKIEEFAEMVEREEED [KCNG1] | 3.57 ± 0.23 | 4 ± 0.53 |  | 
GCQPEDRRRRIIINVGGIKYSLPW [KCNG1] | 2.36 ± 0.52 | 2.5 ± 0.44 |  | 
GDWSAFNQAPSGPVASSGEFFGSA [CLINT1] | 4.16 ± 0.26 | 4.31 ± 0.18 |  | 
GGAAWSIGAAPFSGRRNWCSYVVT [EMID1] | 1.94 ± 0.58 | 2.08 ± 0.095 |  | 
GGAVVANYPYDKSFEHRVRGVRRT [CPN1] | 4.25 ± 0.29 | 4.29 ± 0.15 |  | 
GGSSAVGQFVSLDGAGKTPTLGGG [BRF1] | 4.34 ± 0.49 | 4.82 ± 0.33 |  | 
GGTLFSLEEGSSFWNQGLTWKVLF [CLCN6] | 2.7 ± 0.46 | 2.6 ± 0.81 |  | 
GGYNLASVSVWDLAAPSLHVKEQL [TLE6] | 2.38 ± 0.16 | 2.68 ± 0.33 |  | 
GHNFCRGCVSRCWEVQVSPTCPVC [TRIM35] | 3.86 ± 0.22 | 3.83 ± 0.38 |  | 
GHSHHSHHGHPSHQSHSLPNRRH [C10orf62] |  |  | 2.97 ± 0.49 | 3.71 ± 0.35
GIFLFCVCVIAIGVVQALIVGYAF [TMEM175] | 2.6 ± 0.56 | 2.33 ± 0.56 |  | 
